Patent US20040121362A1

Assays:
[1] = target: Flag-RAI-3 recombinant protein expressed in the stable Flag-RAI-3 CHO cell line (CHO/NFAT G alpha 15), clone B8 (human) (UniProt Q8NFJ5); assay: FACS, clone B8 against parental CHO
[2] = target: Flag-RAI-3 recombinant protein expressed in the stable Flag-RAI-3 CHO cell line (CHO/NFAT G alpha 15), clone B8 (human) (UniProt Q8NFJ5); assay: FACS, gating 100%; parental CHO mean signal 4.82

Sequence of UniProt Q8NFJ5 (Q8NFJ5 other isoform, or with tags, fused parts or gaps): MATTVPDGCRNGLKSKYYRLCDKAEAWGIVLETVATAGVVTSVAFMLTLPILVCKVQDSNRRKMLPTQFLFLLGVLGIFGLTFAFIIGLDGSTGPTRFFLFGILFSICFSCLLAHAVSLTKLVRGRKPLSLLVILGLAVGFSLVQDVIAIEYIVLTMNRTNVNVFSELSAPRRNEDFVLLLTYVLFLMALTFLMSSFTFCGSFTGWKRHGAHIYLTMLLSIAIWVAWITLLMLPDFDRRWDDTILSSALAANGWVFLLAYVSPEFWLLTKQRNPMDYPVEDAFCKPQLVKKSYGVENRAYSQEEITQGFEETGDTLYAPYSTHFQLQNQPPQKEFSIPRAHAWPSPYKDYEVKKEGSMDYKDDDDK

fold over background [1]: 7 fold
mean signal [2]: 35
Substance: Anti-FLAG FITC (Sigma, Catalog #F4049) (antibody)
